Results on 1 variant are retold here after IntAct's records for PubMed 10704439.

First the molecules themselves.
B1: Spindle assembly checkpoint component MAD3 (Saccharomyces cerevisiae), P47074 (parent)
chain: MKAYAKKRISYMPSSPSQNVINFEEIETQKENILPLKEGRSAAALSKAIHQPLVEINQVKSSFEQRLIDELPALSDPITLYLEYIKWLNNAYPQGGNSKQSGMLTLLERCLSHLKDLERYRNDVRFLKIWFWYIELFTRNSFMESRDIFMYMLRNGIGSELASFYEEFTNLLIQKEKFQYAVKILQLGIKNKARPNKVLEDRLNHLLRELGENNIQLGNEISMDSLESTVLGKTRSEFVNRLELANQNGTSSDVNLTKNNVFVDGEESDVELFETPNRGVYRDGWENFDLKAERNKENNLRISLLEANTNLGELKQHEMLSQKKRPYDEKLPIFRDSIGRSDPVYQMINTKDQKPEKIDCNFKLIYCEDEESKGGRLEFSLEEVLAISRNVYKRVRTNRKHPREANLGQEESANQKEAEAQSKRPKISRKALVSKSLTPSNQGRMFSGEEYINCPMTPKGRSTETSDIISAVKPRQLTPILEMRESNSFSQSKNSEIISDDDKSSSSFISYPPQR
partner: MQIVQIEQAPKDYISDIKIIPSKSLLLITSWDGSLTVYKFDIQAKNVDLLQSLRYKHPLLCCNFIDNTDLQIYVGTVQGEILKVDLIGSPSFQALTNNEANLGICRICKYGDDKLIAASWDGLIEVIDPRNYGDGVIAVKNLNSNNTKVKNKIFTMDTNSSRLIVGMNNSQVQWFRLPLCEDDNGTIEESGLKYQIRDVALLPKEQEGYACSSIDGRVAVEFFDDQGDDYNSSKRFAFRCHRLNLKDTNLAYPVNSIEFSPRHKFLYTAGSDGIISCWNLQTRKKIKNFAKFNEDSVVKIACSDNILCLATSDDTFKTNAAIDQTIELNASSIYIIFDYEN

This test covers variants of B1. As to conditions: with bub3_yeast BUB3, P26449.
For E382K, the “effect of a mutation on the interaction” value is “decreasing interaction”.
